In PMC3044768:

Target: authentic wild-type SARS-CoV 3C-like protease (3CLpro) (SARS-CoV) (UniProt P0C6X7)
Assay: ITC

authentic wild-type SARS-CoV 3C-like protease (3CLpro) (from UniProt P0C6X7 3241-3546) (enzyme)
Kd: 21.4 µM
